Measurements reported in the Human Domainome abundance scans (Beltran et al. 2025).
± gives the uncertainty stated by the source.

B1: Receptor-interacting serine/threonine-protein kinase 2, residues 438 to 518; numbered along this chain, O43353 (parent)
chain: QWIQSKREDIVNQMTEACLNQSLDALLSRDLIMKEDYELVSTKPTRTSKVRQLLDTTDIQGEEFAKVIVQKLKDNKQMGLQ

Variants of: B1
Experiment: abundance fitness (aPCA) (normalised: wild type 0, dead -1); higher = more abundant; growth selection in yeast, the domain comes from the species named
Settings: Homo sapiens

Point of comparison: QWIQSKREDIVNQMTEACLNQSLDALLSRDLIMKEDYELVSTKPTRTSKVEQLLDTTDIQGEEFAKVIVQKLKDNKQMGLQ [R51E], abundance fitness -0.273 ± 0.12. Against it:
- QWIQSKREDIVNQMTEACLNQSLDALLSRDLIMKEDYELVSTKPTRTSKVWQLLDTTDIQGEEFAKVIVQKLKDNKQMGLQ [R51W] — lower, -0.802 ± 0.17
- QWIQSKREDIVNQMTEACLNQSLDALLSRDLIMKEDYELVSTKPTRTSKVMQLLDTTDIQGEEFAKVIVQKLKDNKQMGLQ [R51M] — within error, -0.354 ± 0.16
- QWIQSKREDIVNQMTEACLNQSLDALLSRDLIMKEDYELVSTKPTRTSKVNQLLDTTDIQGEEFAKVIVQKLKDNKQMGLQ [R51N] — within error, -0.207 ± 0.11
- QWIQSKREDIVNQMTEACLNQSLDALLSRDLIMKEDYELVSTKPTRTSKVIQLLDTTDIQGEEFAKVIVQKLKDNKQMGLQ [R51I] — within error, -0.235 ± 0.079
- QWIQSKREDIVNQMTEACLNQSLDALLSRDLIMKEDYELVSTKPTRTSKVSQLLDTTDIQGEEFAKVIVQKLKDNKQMGLQ [R51S] — within error, -0.194 ± 0.047
- QWIQSKREDIVNQMTEACLNQSLDALLSRDLIMKEDYELVSTKPTRTSKVGQLLDTTDIQGEEFAKVIVQKLKDNKQMGLQ [R51G] — within error, -0.407 ± 0.055
- QWIQSKREDIVNQMTEACLNQSLDALLSRDLIMKEDYELVSTKPTRTSKVTQLLDTTDIQGEEFAKVIVQKLKDNKQMGLQ [R51T] — within error, -0.255 ± 0.08
- QWIQSKREDIVNQMTEACLNQSLDALLSRDLIMKEDYELVSTKPTRTSKVPQLLDTTDIQGEEFAKVIVQKLKDNKQMGLQ [R51P] — lower, -0.501 ± 0.064
- QWIQSKREDIVNQMTEACLNQSLDALLSRDLIMKEDYELVSTKPTRTSKVDQLLDTTDIQGEEFAKVIVQKLKDNKQMGLQ [R51D] — lower, -0.517 ± 0.092
- QWIQSKREDIVNQMTEACLNQSLDALLSRDLIMKEDYELVSTKPTRTSKVHQLLDTTDIQGEEFAKVIVQKLKDNKQMGLQ [R51H] — lower, -0.518 ± 0.11
- QWIQSKREDIVNQMTEACLNQSLDALLSRDLIMKEDYELVSTKPTRTSKVKQLLDTTDIQGEEFAKVIVQKLKDNKQMGLQ [R51K] — within error, -0.071 ± 0.18
- QWIQSKREDIVNQMTEACLNQSLDALLSRDLIMKEDYELVSTKPTRTSKVVQLLDTTDIQGEEFAKVIVQKLKDNKQMGLQ [R51V] — the same, -0.273 ± 0.072
- QWIQSKREDIVNQMTEACLNQSLDALLSRDLIMKEDYELVSTKPTRTSKVLQLLDTTDIQGEEFAKVIVQKLKDNKQMGLQ [R51L] — within error, -0.254 ± 0.07
- QWIQSKREDIVNQMTEACLNQSLDALLSRDLIMKEDYELVSTKPTRTSKVQQLLDTTDIQGEEFAKVIVQKLKDNKQMGLQ [R51Q] — within error, -0.052 ± 0.17
- QWIQSKREDIVNQMTEACLNQSLDALLSRDLIMKEDYELVSTKPTRTSKVCQLLDTTDIQGEEFAKVIVQKLKDNKQMGLQ [R51C] — within error, -0.307 ± 0.066
- QWIQSKREDIVNQMTEACLNQSLDALLSRDLIMKEDYELVSTKPTRTSKVAQLLDTTDIQGEEFAKVIVQKLKDNKQMGLQ [R51A] — within error, -0.145 ± 0.055
- QWIQSKREDIVNQMTEACLNQSLDALLSRDLIMKEDYELVSTKPTRTSKVRQLEDTTDIQGEEFAKVIVQKLKDNKQMGLQ [L54E] — within error, -0.3 ± 0.22
- QWIQSKREDIVNQMTEACLNQSLDALLSRDLIMKEDYELVSTKPTRTSKVRQLDDTTDIQGEEFAKVIVQKLKDNKQMGLQ [L54D] — within error, -0.452 ± 0.2
- QWIQSKREDIVNQMTEACLNQSLDALLSRDLIMKEDYELVSTKPTRTSKVRQLCDTTDIQGEEFAKVIVQKLKDNKQMGLQ [L54C] — within error, -0.45 ± 0.06
- QWIQSKREDIVNQMTEACLNQSLDALLSRDLIMKEDYELVSTKPTRTSKVRQLADTTDIQGEEFAKVIVQKLKDNKQMGLQ [L54A] — within error, -0.345 ± 0.097
- QWIQSKREDIVNQMTEACLNQSLDALLSRDLIMKEDYELVSTKPTRTSKVRQDLDTTDIQGEEFAKVIVQKLKDNKQMGLQ [L53D] — lower, -0.689 ± 0.21
- QWIQSKREDIVNQMTEACLNQSLDALLSRDLIMKEDYELVSTKPTRTSKVRQELDTTDIQGEEFAKVIVQKLKDNKQMGLQ [L53E] — lower, -0.536 ± 0.14
- QWIQSKREDIVNQMTEACLNQSLDALLSRDLIMKEDYELVSTKPTRTSKVRQWLDTTDIQGEEFAKVIVQKLKDNKQMGLQ [L53W] — lower, -0.595 ± 0.095
- QWIQSKREDIVNQMTEACLNQSLDALLSRDLIMKEDYELVSTKPTRTSKVRQSLDTTDIQGEEFAKVIVQKLKDNKQMGLQ [L53S] — lower, -0.679 ± 0.086
- QWIQSKREDIVNQMTEACLNQSLDALLSRDLIMKEDYELVSTKPTRTSKVRQHLDTTDIQGEEFAKVIVQKLKDNKQMGLQ [L53H] — lower, -0.666 ± 0.14
- QWIQSKREDIVNQMTEACLNQSLDALLSRDLIMKEDYELVSTKPTRTSKVRQALDTTDIQGEEFAKVIVQKLKDNKQMGLQ [L53A] — within error, -0.396 ± 0.072
- QWIQSKREDIVNQMTEACLNQSLDALLSRDLIMKEDYELVSTKPTRTSKVRQGLDTTDIQGEEFAKVIVQKLKDNKQMGLQ [L53G] — within error, -0.433 ± 0.057
- QWIQSKREDIVNQMTEACLNQSLDALLSRDLIMKEDYELVSTKPTRTSKVRQYLDTTDIQGEEFAKVIVQKLKDNKQMGLQ [L53Y] — lower, -0.821 ± 0.18
- QWIQSKREDIVNQMTEACLNQSLDALLSRDLIMKEDYELVSTKPTRTSKVRQFLDTTDIQGEEFAKVIVQKLKDNKQMGLQ [L53F] — lower, -0.785 ± 0.24
- QWIQSKREDIVNQMTEACLNQSLDALLSRDLIMKEDYELVSTKPTRTSKVRQNLDTTDIQGEEFAKVIVQKLKDNKQMGLQ [L53N] — lower, -0.845 ± 0.22
- QWIQSKREDIVNQMTEACLNQSLDALLSRDLIMKEDYELVSTKPTRTSKVRQTLDTTDIQGEEFAKVIVQKLKDNKQMGLQ [L53T] — within error, -0.417 ± 0.092
- QWIQSKREDIVNQMTEACLNQSLDALLSRDLIMKEDYELVSTKPTRTSKVRQMLDTTDIQGEEFAKVIVQKLKDNKQMGLQ [L53M] — within error, -0.517 ± 0.18
- QWIQSKREDIVNQMTEACLNQSLDALLSRDLIMKEDYELVSTKPTRTSKVRQKLDTTDIQGEEFAKVIVQKLKDNKQMGLQ [L53K] — within error, -0.366 ± 0.26
